Test results: patent US20200262920A1 (AMPHIVENA THERAPEUTICS, published 2020)

How the values were obtained:
human CD3 [1] = molecular target: T1, human CD3 (human, UniProt P07766 23-207; P09693 23-182; P04234 22-171; P20963 22-164); experiment: flow cytometry, human T-cells
T1 construct: whole, on cells; the description names the epsilon chain only 'in certain instances'; also called hu CD3; CD3 on T cells

human CD3 [2] = molecular target: T1, human CD3; experiment: cell-based or functional assay
human CD33 [3] = molecular target: T2, human CD33 (human, UniProt P20138 18-364); experiment: flow cytometry titration, U-937 cells
T2 construct: whole, on cells; also called huCD33; CD33 on HL-60, KG-1, KG-1a, U-937 cells
T2 sequence (P20138 18-364): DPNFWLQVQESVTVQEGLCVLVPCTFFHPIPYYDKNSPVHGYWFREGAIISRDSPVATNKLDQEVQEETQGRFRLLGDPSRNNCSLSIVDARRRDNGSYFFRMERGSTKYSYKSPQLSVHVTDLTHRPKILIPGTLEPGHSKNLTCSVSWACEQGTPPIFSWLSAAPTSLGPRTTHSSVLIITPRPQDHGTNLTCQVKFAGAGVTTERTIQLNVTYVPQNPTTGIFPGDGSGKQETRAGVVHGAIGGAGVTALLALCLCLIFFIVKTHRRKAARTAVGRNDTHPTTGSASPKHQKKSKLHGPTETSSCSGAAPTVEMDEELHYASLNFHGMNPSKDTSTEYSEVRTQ
Method: (§1) Cells were incubated with 100 μL of serial dilutions of CD33/CD3 2×2 T-cell engagers. After washing three times with FACS buffer the cells were incubated with 0.1 mL of 10 μg/mL mouse monoclonal anti-His antibody in the same buffer for 45 min on ice. After a second washing cycle, the cells were incubated with 0.1 mL of 15 μg/mL FITC-conjugated goat anti-mouse IgG antibodies under the same conditions as before. As a control, cells were incubated with the anti-His IgG followed by the FITC-conjugated goat anti-mouse IgG antibodies without anti-CD33 2×2 T-cell engagers. The cells were then washed again and resuspended in 0.2 mL of FACS buffer containing 2 μg/mL propidium iodide (PI) in order to exclude dead cells. The fluorescence of 1×10⁴ living cells was measured using a Beckman-Coulter FC500 MPL flow cytometer using the MXP software (Beckman-Coulter, Krefeld, Germany) or a Millipore Guava EasyCyte flow cytometer using the Incyte software (Merck Millipore, Schwalbach, Germany). Mean fluorescence intensities of the cell samples were calculated using CXP software (Beckman-Coulter, Krefeld, Germany) or Incyte software (Merck Millipore, Schwalbach, Germany). After subtracting the fluorescence intensity values of the cells stained with the secondary and tertiary reagents alone the values were used for calculation of the KD values with the equation for one-site binding (hyperbola) of the GraphPad Prism (version 6.00 for Windows, GraphPad Software, La Jolla Calif. USA). […]

human CD33 [4] = molecular target: T2, human CD33; experiment: flow cytometry, HL-60 cells
human CD33 [5] = molecular target: T2, human CD33; experiment: cell-based or functional assay
human CD33 [6] = molecular target: T2, human CD33; experiment: flow cytometry titration, KG-1 cells
Method: as §1

human CD3 [7] = molecular target: T1, human CD3; experiment: flow cytometry titration, T cells (human CD3+)
human CD33 [8] = molecular target: T2, human CD33; experiment: flow cytometry titration, HL-60 cells
Method: as §1

T1 sequence (P07766 23-207, chain 1 of 4): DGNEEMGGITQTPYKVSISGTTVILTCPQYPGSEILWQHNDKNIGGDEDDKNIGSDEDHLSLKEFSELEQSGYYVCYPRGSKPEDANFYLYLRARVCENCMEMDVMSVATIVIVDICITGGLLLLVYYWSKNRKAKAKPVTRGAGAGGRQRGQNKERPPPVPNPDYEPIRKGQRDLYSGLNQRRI
T1 sequence (P09693 23-182, chain 2 of 4): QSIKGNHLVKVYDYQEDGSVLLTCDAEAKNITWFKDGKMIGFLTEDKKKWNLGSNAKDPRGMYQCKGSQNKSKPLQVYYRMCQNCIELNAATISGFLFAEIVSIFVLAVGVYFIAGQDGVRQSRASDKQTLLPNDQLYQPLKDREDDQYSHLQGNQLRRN
T1 sequence (P04234 22-171, chain 3 of 4): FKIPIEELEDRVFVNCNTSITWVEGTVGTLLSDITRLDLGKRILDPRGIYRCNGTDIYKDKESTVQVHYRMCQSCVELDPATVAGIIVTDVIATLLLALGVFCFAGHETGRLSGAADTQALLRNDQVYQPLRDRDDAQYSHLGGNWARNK
T1 sequence (P20963 22-164, chain 4 of 4): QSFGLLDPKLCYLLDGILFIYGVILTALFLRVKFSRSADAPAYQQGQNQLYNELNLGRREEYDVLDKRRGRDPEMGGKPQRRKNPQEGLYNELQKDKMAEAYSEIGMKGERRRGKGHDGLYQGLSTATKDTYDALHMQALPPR

Binder	Kd (human CD3 [1])	CD25 Induction EC50 (human CD3 [2])	CD69 Induction EC50 (human CD3 [2])	T cell Proliferation in PBMC EC50 (human CD3 [2])	Kd (human CD33 [3])	Kd (human CD33 [4])	EC50 on HL-60 (cytotoxicity) (human CD33 [5])	Kd (human CD33 [6])	Kd (human CD3 [7])	Kd (human CD33 [8])
CD33/CD3 2×2 T-cell engager 11 (bispecific antibody, Non-covalent homodimer) DIQMTQSPSSLSASVGDRVTITCRSSTGAVTTSNYANWVQQKPGKAPKGLIGGTNKRAPGVPSRFSGSLIGDKATLTISSLQPEDFATYYCALWYSNLWVFGQGTKVEIKGGSGGSQVQLVQSGAEVKKPGASVKVSCKASGYTFTSYDINWVRQAPGQGLEWMGWMNPNSGNTGFAQKFQGRVTMTRDTSTSTVYMELSSLRSEDTAVYYCARDRANTDYSLGMDVWGQGTLVTVSSGGSGQSVLTQPPSASGTPGQRVTISCSGSRSNIGSNTVNWYQQLPGTAPKLLIYGNNQRPSGVPDRFSGSKSGTSASLAISGLQSEDEADYYCATWDDSLIGWVFGGGTKLTVLGGSGGSEVQLVESGGGLVQPGGSLRLSCAASGFTFSTYAMNWVRQAPGKGLEWVGRIRSKYNNYATYYADSVKDRFTISRDDSKNSLYLQMNSLKTEDTAVYYCARHGNFGNSYVSWFAYWGQGTLVTVSSAAAGSHHHHHH	2.6 nM	0.011 nM	0.005 nM	0.006 nM	0.6 nM	0.3 nM	0.0059 nM	0.5 nM	2.6 nM	0.3 nM
CD33/CD3 2×2 T-cell engager 13 (bispecific antibody, Non-covalent homodimer) DIQMTQSPSSLSASVGDRVTITCRSSTGAVTTSNYANWVQQKPGKAPKGLIGGTNKRAPGVPSRFSGSLIGTDFTLTISSLQPEDFATYYCALWYSNLWVFGQGTKVEIKGGSGGSQVQLVQSGAEVKKPGASVKVSCKASGYTFTSYDINWVRQAPGQGLEWMGWMNPNSGNTGFAQKFQGRVTMTRDTSTSTVYMELSSLRSEDTAVYYCARDRAVTDYYYGMDVWGQGTLVTVSSGGSGQSVLTQPPSASGTPGQRVTISCSGSRSNIGSNTVNWYQQLPGTAPKLLIYGNNQRPSGVPDRFSGSKSGTSASLAISGLQSEDEADYYCATWDDSLIGWVFGGGTKLTVLGGSGGSEVQLVESGGGLVQPGGSLRLSCAASGFTFSTYAMNWVRQAPGKGLEWVGRIRSKYNNYATYYADSVKDRFTISRDDSKNSLYLQMNSLKTEDTAVYYCARHGNFGNSYVSWFAYWGQGTLVTVSSAAAGSHHHHHH	55.7 nM	0.03 nM	0.022 nM	0.023 nM	0.5 nM	0.2 nM	0.0011 nM	0.3 nM	55.7 nM	0.2 nM
CD33/CD3 2×2 T-cell engager 15 (bispecific antibody, Non-covalent homodimer) DIQMTQSPSSLSASVGDRVTITCRSSTGAVTTSNYANWVQQKPGKAPKALIGGTNKRAPGVPSRFSGSLIGDKATLTISSLQPEDFATYYCALWYSNLWVFGQGTKVEIKGGSGGSQVQLVQSGAEVKKPGASVKVSCKASGYTFTSYDINWVRQAPGQGLEWMGWMNPNSGNTGFAQKFQGRVTMTRDTSTSTVYMELSSLRSEDTAVYYCARDRANTDYSFGMDVWGQGTLVTVSSGGSGQSVLTQPPSASGTPGQRVTISCSGSRSNIGSNTVNWYQQLPGTAPKLLIYGNNQRPSGVPDRFSGSKSGTSASLAISGLQSEDEADYYCATWDDSLIGWVFGGGTKLTVLGGSGGSEVQLVESGGGLVQPGGSLRLSCAASGFTFSTYAMNWVRQAPGKGLEWVGRIRSKYNNYATYYADSVKDRFTISRDDSKNSLYLQMNSLKTEDTAVYYCARHGNFGNSYVSYFAYWGQGTLVTVSSAAAGSHHHHHH	1.3 nM	0.006 nM	0.007 nM	0.007 nM	0.9 nM	0.4 nM	0.0018 nM	0.3 nM	1.3 nM	0.4 nM
